Test [1] addresses T1, human EphA2 (human, UniProt P29317 25-534, limits assumed).
T1 construct: also called Eph receptor tyrosine kinase A2
In words: fluorescence polarisation competition with tracer BCY90, human EphA2, mean of 6. The procedure:
(§1) Peptides without a fluorescent tag were tested in competition with a peptide with a fluorescent tag and a known Kd.
(§2) Peptides were diluted to an appropriate concentration in assay buffer as described in the direct binding assay with a maximum of 5% DMSO, then serially diluted 1 in 2. […] Measurements were conducted, however the gain was determined prior to the first measurement. Data analysis was in Systat Sigmaplot version 12.0 where the mP values were fit to a user defined cubic equation to generate a Ki value: […]

The target of test [2] is T1, human EphA2. Put plainly: fluorescence polarisation competition with tracer BCY90, human EphA2, mean of 8. The procedure:
as §1, §2
A general note: In fluorescence polarisation assays a small probe gives low polarisation when free and higher when bound to something large.

Test [3] addresses T1, human EphA2. In words: fluorescence polarisation competition with tracer BCY90, human EphA2, mean of 38. The procedure:
as §1, §2

The target of test [4] is T1, human EphA2. In words: fluorescence polarisation competition with tracer BCY90, human EphA2, mean of 10. The procedure: as §1, §2

For 42 molecules, Ki results are on record in patent publication US20220257784A1 (Bicycle, published 2022).

Starred links: 1 amine or outer side, 2 acyl side, 3 side chain; linkers in the order of their positions; H or OH if unused. Positions of bridges follow the written chain, without caps; N, C: chain ends. Non-standard residues stand in square brackets, D forms with d. No end group written: not given here. TATA = O=C(CC[*:1])N1CN(C(=O)CC[*:2])CN(C(=O)CC[*:3])C1; Ala(4-thiazolyl) = N[C@@H](Cc1cscn1)C(=O)O; Dip = N[C@H](C(=O)O)C(c1ccccc1)c1ccccc1; 1Nal = N[C@@H](Cc1cccc2ccccc12)C(=O)O; His(τ-Me) = Cn1cnc(C[C@H](N)C(=O)O)c1; d1Nal = N[C@H](Cc1cccc2ccccc12)C(=O)O; Hyp = O=C(O)[C@@H]1C[C@@H](O)CN1; hArg = N=C(N)NCCCC[C@H](N)C(=O)O; 2Thi = N[C@@H](Cc1cccs1)C(=O)O; 3Thi = N[C@@H](Cc1ccsc1)C(=O)O; Aad = N[C@@H](CCCC(=O)O)C(=O)O; His3Me = N3-methyl-L-histidine; Cysteamide = C(CS[*:3])N[*:1]; Cba = N[C@@H](CC1CCC1)C(=O)O; dNle = CCCC[C@@H](N)C(=O)O; NMeA = CN[C@@H](C)C(=O)O; Nle = CCCC[C@H](N)C(=O)O; Mpa = O=C(O)CCS

T1 sequence (P29317 25-534 limits assumed): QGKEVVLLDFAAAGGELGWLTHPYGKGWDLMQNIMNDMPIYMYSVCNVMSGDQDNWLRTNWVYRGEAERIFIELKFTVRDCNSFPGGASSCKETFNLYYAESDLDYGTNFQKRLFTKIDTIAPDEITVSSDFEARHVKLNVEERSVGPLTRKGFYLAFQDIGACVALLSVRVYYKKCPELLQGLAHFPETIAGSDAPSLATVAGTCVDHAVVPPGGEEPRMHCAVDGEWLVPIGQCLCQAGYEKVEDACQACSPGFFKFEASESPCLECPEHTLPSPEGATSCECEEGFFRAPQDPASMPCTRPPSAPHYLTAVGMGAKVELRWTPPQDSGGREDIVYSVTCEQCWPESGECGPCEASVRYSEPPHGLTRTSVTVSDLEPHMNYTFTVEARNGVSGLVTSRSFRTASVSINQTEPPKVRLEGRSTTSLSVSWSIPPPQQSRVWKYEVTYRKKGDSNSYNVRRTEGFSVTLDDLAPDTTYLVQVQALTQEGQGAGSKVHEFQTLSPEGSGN

B1: BCY12861 (peptide)
peptide: C[Hyp]LVNPLCLEP[dD]WTC[dA]-NH2
modifications: linker 1-8-15 via TATA
notes: Bicyclic peptide cyclised with TATA
A word on the Ki: it is the equilibrium dissociation constant of an inhibitor or competing ligand from its target. The low end stands for a stronger hold on the target, the high end for a looser hold on the target. Turning to B1, affinity with human EphA2 [1] was put at a Ki of 21.7 nM.

B2: BCY12856 (peptide)
peptide: A[hArg]DC[Hyp]LVNPLCLEP[dD]WTC-NH2
modifications: linker 4-11-18 via TATA
notes: as for B1
In the test with human EphA2 [2], B2 displayed a Ki of 4.63 nM.

B3: BCY12855 (peptide)
peptide: A[hArg]DC[Hyp]LVNPLCLHP[dD]WTC-NH2
modifications: linker 4-11-18 via TATA
notes: as for B1
For B3, in the test with human EphA2 [1], the affinity, expressed as Ki, was 5.55 nM.

B4: BCY12858 (peptide)
peptide: A[hArg]DC[Hyp]LVNPLCLEP[dA]WTC-NH2
modifications: linker 4-11-18 via TATA
notes: as for B1
B4 showed a Ki in the test with human EphA2 [1] of 8.19 nM.

B5: BCY13134 (peptide)
peptide: A[hArg]DC[Hyp]LVNPLCLHP[dNle]W[hArg]C-NH2
modifications: linker 4-11-18 via TATA
notes: as for B1
In turn, B5 had an inhibition constant Ki with human EphA2 [1] of 1.16 nM.

B6: BCY13131 (peptide)
peptide: A[hArg]DC[Hyp]LVNPLC[Aad]HP[dD]W[hArg]C-NH2
modifications: linker 4-11-18 via TATA
notes: as for B1
The molecule B6 registered a Ki in the test with human EphA2 [1] of 27.1 nM.

B7: BCY13116 (peptide)
peptide: A[hArg]DC[Hyp]LVNPLCLHP[d1Nal]W[hArg]C-NH2
modifications: linker 4-11-18 via TATA
notes: as for B1
As to B7, the Ki with human EphA2 [2] came out at 1.13 nM.

B8: BCY12859 (peptide)
peptide: A[hArg]DC[Hyp]LVNPLCL[Dip]P[dD]WTC-NH2
modifications: linker 4-11-18 via TATA
notes: as for B1
B8: the Ki with human EphA2 [2] is 0.723 nM.

B9: BCY13122 (peptide)
peptide: [NMeA][hArg]DC[Hyp]LVNPLCLEP[dD]WTC-NH2
modifications: linker 4-11-18 via TATA
notes: as for B1
In the test with human EphA2 [2], B9 showed a Ki of 7.8 nM.

B10: BCY13135 (peptide)
peptide: A[hArg]DC[Hyp]LVNPLCL[Nle]P[dD]W[hArg]C-NH2
modifications: linker 4-11-18 via TATA
notes: as for B1
In turn, B10 displayed a Ki with human EphA2 [1] of 0.894 nM.

B11: BCY13923 (peptide)
peptide: A[hArg]DC[Hyp]LVNPLCL[3Thi]P[dD]W[hArg]C-NH2
modifications: linker 4-11-18 via TATA
notes: as for B1
As to B11, in the test with human EphA2 [1], the Ki stood at 1.32 nM.

B12: BCY13119 (peptide)
peptide: C[Hyp]LVNPLCL[1Nal]P[dD]WTC-NH2
modifications: linker 1-8-15 via TATA
notes: as for B1
In the test with human EphA2 [2], B12 registered a Ki of 2.64 nM.

B13: BCY12862 (peptide)
peptide: A[hArg]DC[Hyp][Cba]VNPLCLHP[dD]W[hArg]C-NH2
modifications: linker 4-11-18 via TATA
notes: as for B1
In the test with human EphA2 [1], B13 came in with a Ki of 1.22 nM.

B14: BCY13922 (peptide)
peptide: A[hArg]DC[Hyp]LVNPLCL[2Thi]P[dD]W[hArg]C-NH2
modifications: linker 4-11-18 via TATA
notes: as for B1
B14: the Ki with human EphA2 [1] worked out at 1.14 nM.

B15: BCY13120 (peptide)
peptide: Ac-C[Hyp]LVNPLCL[Dip]P[dD]WTC[dK]-NH2
modifications: linker 1-8-15 via TATA
notes: as for B1
B15: in the test with human EphA2 [1], the Ki amounted to 0.916 nM.

B16: BCY13129 (peptide)
peptide: [Mpa][Hyp]LVNPLCL[Dip]P[dD]WTC[dK]-NH2
modifications: linker (positions not given here) via TATA; not fully specified (bridges)
notes: Bicyclic peptide cyclised with TATA; the first reactive group is 3-mercaptopropionic acid in place of cysteine
For B16, the affinity with human EphA2 [1], expressed as Ki, was 1.88 nM.

B17: BCY13121 (peptide)
peptide: [NMeA][hArg]DC[Hyp]LVNPLCLHP[dD]W[hArg]C-NH2
modifications: linker 4-11-18 via TATA
notes: as for B1
As to B17, the Ki with human EphA2 [1] came to 1.49 nM.

B18: BCY13126 (peptide)
peptide: [dA]EDC[Hyp]LVNPLCLEP[dD]WTC-NH2
modifications: linker 4-11-18 via TATA
notes: as for B1
In turn, B18 showed a Ki in the test with human EphA2 [1] of 25.3 nM.

B19: BCY13127 (peptide)
peptide: [dA][dA]DC[Hyp]LVNPLCLEP[dD]WTC-NH2
modifications: linker 4-11-18 via TATA
notes: as for B1
Regarding B19, in the test with human EphA2 [1], affinity was put at a Ki of 14.9 nM.

B20: BCY13130 (peptide)
peptide: A[hArg]DC[Hyp][Aad]VNPLCLHP[dD]W[hArg]C-NH2
modifications: linker 4-11-18 via TATA
notes: as for B1
Take B20: the Ki in the test with human EphA2 [1] stood at 7.8 nM.

B21: BCY12854 (peptide)
peptide: A[hArg]DC[Hyp]LVNPLCLEP[dD]W[hArg]C-NH2
modifications: linker 4-11-18 via TATA
notes: as for B1
Turning to B21, the Ki in the test with human EphA2 [1] is 9.34 nM.

B22: BCY9594 (peptide)
peptide: A[hArg]DC[Hyp]LVNPLCLHP[dD]W[hArg]C-NH2
modifications: linker 4-11-18 via TATA
notes: as for B1
Consider B22, for which the Ki with human EphA2 [3] was determined as 1.44 nM.

B23: BCY14047 (peptide)
peptide: A[hArg]DC[Hyp]LVNPLCLNP[dD]W[hArg]C-NH2
modifications: linker 4-11-18 via TATA
notes: as for B1
B23 had a Ki with human EphA2 [1] of 3.88 nM.

B24: BCY14048 (peptide)
peptide: A[hArg]DC[Hyp]LVNPLCLQP[dD]W[hArg]C-NH2
modifications: linker 4-11-18 via TATA
notes: as for B1
Turning to B24, in the test with human EphA2 [1], the Ki was found to be 4.1 nM.

B25: BCY13920 (peptide)
peptide: A[hArg]DC[Hyp]LVNPLCLFP[dD]W[hArg]C-NH2
modifications: linker 4-11-18 via TATA
notes: as for B1
B25 showed a Ki with human EphA2 [1] of 0.641 nM.

B26: BCY13132 (peptide)
peptide: A[hArg]DC[Hyp]LVNPLCL[Aad]P[dD]W[hArg]C-NH2
modifications: linker 4-11-18 via TATA
notes: as for B1
In the test with human EphA2 [1], B26 had a Ki of 7.08 nM.

B27: BCY12866 (peptide)
peptide: A[hArg]DC[Hyp]LVNPLCL[Dip]P[dD]W[hArg]C-NH2
modifications: linker 4-11-18 via TATA
notes: as for B1
With B27, affinity with human EphA2 [4] was put at a Ki of 0.244 nM.

B28: BCY12864 (peptide)
peptide: [dA][hArg]DC[Hyp][Cba]VNPLCLEP[dD]WTC[dA]-NH2
modifications: linker 4-11-18 via TATA
notes: as for B1
In turn, B28 yielded a Ki in the test with human EphA2 [1] of 9.29 nM.

B29: BCY13123 (peptide)
peptide: [dA][hArg]DC[Hyp][Cba]VNPLCLEP[dA]WTC[dA]-NH2
modifications: linker 4-11-18 via TATA
notes: as for B1
On to B29, for which the affinity with human EphA2 [1], expressed as Ki, was 6.44 nM.

B30: BCY12857 (peptide)
peptide: A[hArg]DC[Hyp]LVNPLCLEP[dD]WTC[dA]-NH2
modifications: linker 4-11-18 via TATA
notes: as for B1
As to B30, in the test with human EphA2 [1], the affinity, expressed as Ki, was 16 nM.

B31: BCY13124 (peptide)
peptide: [d1Nal][hArg]DC[Hyp][Cba]VNPLCLEP[dA]WTC[dA]-NH2
modifications: linker 4-11-18 via TATA
notes: as for B1
With B31, the Ki in the test with human EphA2 [1] is 7.62 nM.

B32: BCY13133 (peptide)
peptide: A[hArg]DC[Hyp]LVNPLCLHP[dD]W[hArg][Cysteamide]
modifications: linker (positions not given here) via TATA; not fully specified (bridges)
notes: Bicyclic peptide cyclised with TATA; the third reactive group is cysteamine in place of cysteine
Molecule B32 returned a Ki with human EphA2 [1] of 3.24 nM.

B33: BCY13918 (peptide)
peptide: A[hArg]DC[Hyp]LVNPLCL[His(τ-Me)]P[dD]W[hArg]C-NH2
modifications: linker 4-11-18 via TATA
notes: as for B1
B33 yielded a Ki with human EphA2 [1] of 2.62 nM.

B34: BCY13128 (peptide)
peptide: ADC[Hyp]LVNPLCLEP[dD]WTC-NH2
modifications: linker 3-10-17 via TATA
notes: as for B1
Molecule B34 gave a Ki with human EphA2 [1] of 16.1 nM.

B35: BCY12865 (peptide)
peptide: C[Hyp][Cba]VNPLCL[Dip]P[dD]WTC[dA]-NH2
modifications: linker 1-8-15 via TATA
notes: as for B1
For B35, the Ki in the test with human EphA2 [1] amounted to 0.857 nM.

B36: BCY13125 (peptide)
peptide: Ac-C[Hyp]LVNPLCLHP[dD]W[hArg]CL[dH]G[dK]-NH2
modifications: linker 1-8-15 via TATA
notes: as for B1
In turn, B36 registered a Ki in the test with human EphA2 [1] of 1.83 nM.

B37: BCY13117 (peptide)
peptide: A[hArg]DC[Hyp]LVNPLCL[1Nal]P[dD]W[hArg]C-NH2
modifications: linker 4-11-18 via TATA
notes: as for B1
B37 showed a Ki with human EphA2 [2] of 1.12 nM.

B38: BCY13118 (peptide)
peptide: A[hArg]DC[Hyp]LVNPLCLEP[d1Nal]WTC-NH2
modifications: linker 4-11-18 via TATA
notes: as for B1
As for B38, the Ki with human EphA2 [1] stood at 5.42 nM.

B39: BCY13917 (peptide)
peptide: A[hArg]DC[Hyp]LVNPLCL[His3Me]P[dD]W[hArg]C-NH2
modifications: linker 4-11-18 via TATA
notes: as for B1
As for B39, the Ki with human EphA2 [1] amounted to 1.72 nM.

B40: BCY13919 (peptide)
peptide: A[hArg]DC[Hyp]LVNPLCL[Ala(4-thiazolyl)]P[dD]W[hArg]C-NH2
modifications: linker 4-11-18 via TATA
notes: as for B1
B40 had a Ki with human EphA2 [1] of 2.1 nM.

B41: BCY12860 (peptide)
peptide: C[Hyp]LVNPLCL[Dip]P[dD]WTC-NH2
modifications: linker 1-8-15 via TATA
notes: as for B1
In the test with human EphA2 [1], B41 returned a Ki of 0.66 nM.

B42: BCY12863 (peptide)
peptide: A[hArg]DC[Hyp][Cba]VNPLCLEP[dD]WTC-NH2
modifications: linker 4-11-18 via TATA
notes: as for B1
In turn, B42 gave an inhibitory constant (Ki) with human EphA2 [1] of 5.84 nM.
